# Data published in paper PMC7786401.
# What was measured:
# [1] = biological target: angiotensin II type 1 receptor A244S (human) (UniProt P30556)
# [2] = biological target: angiotensin II type 1 receptor I103T (human) (UniProt P30556)
# [3] = biological target: angiotensin II type 1 receptor I103T-A244S (human) (UniProt P30556)
# [4] = biological target: angiotensin II type 1 receptor, wild type (human) (UniProt P30556)
# Chain of βarrestin2-RlucII (P32121 whole entry): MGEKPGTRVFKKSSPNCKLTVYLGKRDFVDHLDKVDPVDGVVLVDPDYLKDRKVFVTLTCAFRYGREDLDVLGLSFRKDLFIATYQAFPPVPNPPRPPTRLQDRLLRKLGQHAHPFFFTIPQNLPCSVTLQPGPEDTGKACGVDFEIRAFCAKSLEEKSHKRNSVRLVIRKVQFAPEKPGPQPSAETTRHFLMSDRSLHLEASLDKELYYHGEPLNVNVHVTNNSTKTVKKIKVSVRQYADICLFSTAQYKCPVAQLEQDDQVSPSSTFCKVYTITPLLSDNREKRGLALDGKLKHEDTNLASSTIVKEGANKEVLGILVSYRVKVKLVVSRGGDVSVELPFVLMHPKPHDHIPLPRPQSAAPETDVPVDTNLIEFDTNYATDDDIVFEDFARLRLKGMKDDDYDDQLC
substance,measurement,setting,value
βarrestin2-RlucII (from UniProt P32121 1-409) (natural protein),"AngII-stimulated β-arrestin 2 recruitment to the membrane (BRET2 between βarrestin2-RlucII and rGFP-CaaX), Emax (% WT)",[1],106 % WT
same,"AngII-stimulated β-arrestin 2 recruitment to the membrane (BRET2 between βarrestin2-RlucII and rGFP-CaaX), pEC50 of AngII",[1],8.68
same,"AngII-stimulated β-arrestin 2 recruitment to the membrane (BRET2 between βarrestin2-RlucII and rGFP-CaaX), Emax (% WT)",[2],97 % WT
same,"AngII-stimulated β-arrestin 2 recruitment to the membrane (BRET2 between βarrestin2-RlucII and rGFP-CaaX), pEC50 of AngII",[2],8.54
same,"AngII-stimulated β-arrestin 2 recruitment to the membrane (BRET2 between βarrestin2-RlucII and rGFP-CaaX), Emax (% WT)",[3],50 % WT
same,"AngII-stimulated β-arrestin 2 recruitment to the membrane (BRET2 between βarrestin2-RlucII and rGFP-CaaX), pEC50 of AngII",[3],8.5
same,"AngII-stimulated β-arrestin 2 recruitment to the membrane (BRET2 between βarrestin2-RlucII and rGFP-CaaX), pEC50 of AngII",[4],8.49
